Columns and labels:
[1] = biological target: sodium caseinate; experiment: cell-based or functional assay
[2] = biological target: casein hydrolysate; experiment: cell-based or functional assay

peptidyl arginine deiminase (PAD) of Fusarium graminearum CBS166.57, over-expressed in Aspergillus niger and purified (enzyme)
arginine (amino acid analysis, 5 microliter PAD, 3 hours) [1]: 97.8% | arginine (amino acid analysis, 50 microliter PAD, 3 hours) [1]: 86.5% | arginine (amino acid analysis, 500 microliter PAD, 3 hours) [1]: 70.2% | citrulline (amino acid analysis, 5 microliter PAD, 3 hours) [1]: 0.8% | citrulline (amino acid analysis, 50 microliter PAD, 3 hours) [1]: 4.7% | citrulline (amino acid analysis, 500 microliter PAD, 3 hours) [1]: 10.5% | ornithine (amino acid analysis, 5 microliter PAD, 3 hours) [1]: 1.3% | ornithine (amino acid analysis, 50 microliter PAD, 3 hours) [1]: 8.8% | ornithine (amino acid analysis, 500 microliter PAD, 3 hours) [1]: 19.3% | arginine (amino acid analysis, 5 microliter PAD, 3 hours) [2]: 97.2% | arginine (amino acid analysis, 50 microliter PAD, 3 hours) [2]: 86.1% | arginine (amino acid analysis, 500 microliter PAD, 3 hours) [2]: 60.4% | citrulline (amino acid analysis, 5 microliter PAD, 3 hours) [2]: 0.9% | citrulline (amino acid analysis, 50 microliter PAD, 3 hours) [2]: 5% | citrulline (amino acid analysis, 500 microliter PAD, 3 hours) [2]: 15.1% | ornithine (amino acid analysis, 5 microliter PAD, 3 hours) [2]: 1.9% | ornithine (amino acid analysis, 50 microliter PAD, 3 hours) [2]: 8.9% | ornithine (amino acid analysis, 500 microliter PAD, 3 hours) [2]: 24.5%

Reference: US20090297689A1
